The text below walks through data of article PMC6529018.

The Kd is the concentration at which binding is half-saturated.

The target of this assay is Recombinant His-BifA (full length) (Streptococcus equi subsp. zooepidemicus ATCC35246). Kind of assay: SPR; Biacore X100; His-BifA and its variants immobilised on NTA sensorchips, moesin, moesin T558A or moesin T558D injected. (In general: Surface plasmon resonance follows binding to a sensor surface in real time, without labels.)

On to “Recombinant moesin T558A, non-tagged (from UniProt P26038 1-577) (natural protein)”, for which the Kd came out at 737 nM.
For “Recombinant moesin T558D, non-tagged (from UniProt P26038 1-577) (natural protein)”, the Kd is 10.8 nM.
